Experimental data from patent publication US11306156.
Blank lines part the entries; values can stand above or below the substance they belong to.

Experiments:
[1] = target: tissue factor (TF) antigen (UniProt P13726); assay: SPR (ProteOn), Fab captured on anti-penta-His surface, TF injected, 1:1 fit
[2] = target: tissue factor (TF) antigen (UniProt P13726); assay: SPR (ProteOn), Fab captured on anti-penta-His surface, TF injected; reference wild-type D3H44 Fab
[3] = target: tissue factor (TF) antigen (UniProt P13726); assay: vs wild-type D3H44 Fab (KD 0.157 nM); SPR, Fab captured on anti-penta-His, TF as analyte
[4] = target: tissue factor (TF) antigen (UniProt P13726); assay: SPR, Fab captured on anti-penta-His, TF as analyte, 1:1 fit
[5] = target: tissue factor (TF) antigen (UniProt P13726); assay: SPR (ProteOn XPR36), Fab captured on anti-penta-His, TF injected, 1:1 fit; batch C (+)
[6] = target: tissue factor (TF) antigen (UniProt P13726); assay: SPR, against wild-type D3H44 Fab; batch C (+)
[7] = target: tissue factor (TF) antigen (UniProt P13726); assay: SPR (ProteOn XPR36), Fab captured on anti-penta His surface, TF injected as analyte, 1:1 model
[8] = target: tissue factor (TF) antigen (UniProt P13726); assay: SPR, same assay; reference wild-type D3H44 Fab
[9] = target: tissue factor (TF) antigen (UniProt P13726); assay: SPR, Fab captured on anti-penta-His surface, TF as analyte, 1:1 fit; Fab batch C
[10] = target: tissue factor (TF) antigen (UniProt P13726); assay: SPR, Fab captured on anti-penta-His surface, TF as analyte, 1:1 fit; Fab batch C; against wild-type D3H44 Fab
[11] = target: tissue factor (TF) antigen (UniProt P13726); assay: SPR (ProteOn XPR36), His-tagged Fab captured on anti-penta His, TF as analyte, 1:1 fit

Chain of tissue factor (TF) antigen (P13726 33-251 limits assumed): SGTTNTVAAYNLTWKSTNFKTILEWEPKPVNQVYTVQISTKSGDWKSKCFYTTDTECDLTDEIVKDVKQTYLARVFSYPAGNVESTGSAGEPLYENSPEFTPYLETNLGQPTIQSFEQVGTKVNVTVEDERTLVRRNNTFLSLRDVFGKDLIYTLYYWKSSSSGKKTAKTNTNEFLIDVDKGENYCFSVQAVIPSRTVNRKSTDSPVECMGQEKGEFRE

Substance: H1L1 Fab heterodimer of LCCA sets 9869, 9871, 9874, 9876 and 9879 (D3H44 Fab, H1 S186R, L1 Q124E_Q160E_T180E)
- change in median KD compared to wild type, -(log(KD design)-log(KD wt)) [3]: 0.51
- Kd [4]: 0.05 nM

Substance: H1L1 Fab heterodimer of LCCA Set # 9805 and 9806 (D3H44 Fab; H1 Q179R, L1 Q124E_S131T_T178Y_T180E)
- Kd [5]: 0.13 nM
- Change in median values of KD of h1l1 Fab heterodimer compared to wild type (-(log(KD design)-log(KD wt))) [6]: 0.07

Substance: H1L1 Fab heterodimer of LCCA set 9260 (D3H44 Fab, H1 L124E_L143E_K145M, L1 Q124K_V133G_S176R_T178K)
- Kd [7]: 0.24 nM
- change in median KD of H1L1 Fab heterodimer compared to wild type (-(log(KD design)-log(KD wt))) [8]: -0.19

Substance: H1L1 Fab heterodimer of LCCA set 9516 (D3H44 Fab, H1 L124R_S186R, L1 Q124E_V133G_S176D_T178D_T180E)
- Kd [7]: 0.26 nM
- change in median KD of H1L1 Fab heterodimer compared to wild type (-(log(KD design)-log(KD wt))) [8]: -0.21

Substance: H1L1 Fab heterodimer of LCCA set 10552 (D3H44 Fab, H1 L45P_L143E_K145T_H172R, L1 P44F_Q124R_Q160K_T178R)
- change in median KD compared to wild type, -(log(KD design)-log(KD wt)) [3]: -0.27
- Kd [4]: 0.29 nM

Substance: H1L1 Fab heterodimer of LCCA Set # 9781 and 9782 (D3H44 Fab; H1 Q179K, L1 Q124E_S176L_T180E)
- Kd [5]: 0.08 nM
- Change in median values of KD of h1l1 Fab heterodimer compared to wild type (-(log(KD design)-log(KD wt))) [6]: 0.28

Substance: D3H44 H1L1 Fab heterodimer of LCCA Set # 9987 (H1 L143E_K145T; L1 Q124R_T178R)
- Kd [9]: 0.11 nM
- change in median KD compared to wild type, -(log(KD design)-log(KD wt)) [10]: 0.15

Substance: H1L1 Fab heterodimer of LCCA set 9225 (D3H44 Fab, H1 L124E_L143D_K145T, L1 Q124K_V133G_S176R_T178R)
- Kd [7]: 0.16 nM
- change in median KD of H1L1 Fab heterodimer compared to wild type (-(log(KD design)-log(KD wt))) [8]: -0.02

Substance: D3H44 H1L1 Fab heterodimer of LCCA Set # 9270 (H1 L124E_L143E_K145M; L1 Q124K_V133G_S176R_T178R)
- Kd [1]: 0.31 nM
- Change in median values of KD of h1l1 Fab heterodimer compared to wild type (-(log(KD design)-log(KD wt))) [2]: -0.29

Substance: D3H44 H1L1 Fab heterodimer of LCCA Sets # 9176, 9178 and 9179 (H1 L124E_L143D_K145M; L1 Q124K_V133G_S176R_T178K)
- Kd [1]: 0.22 nM
- Change in median values of KD of h1l1 Fab heterodimer compared to wild type (-(log(KD design)-log(KD wt))) [2]: -0.15

Substance: H1L1 Fab heterodimer of LCCA set 9269 (D3H44 Fab, H1 L124E_L143E_K145M, L1 Q124K_V133G_S176R_T178R)
- Kd [7]: 0.31 nM
- change in median KD of H1L1 Fab heterodimer compared to wild type (-(log(KD design)-log(KD wt))) [8]: -0.29

Substance: H1L1 Fab heterodimer of LCCA set 9214 (D3H44 Fab, H1 L124E_L143D_K145T, L1 Q124K_V133G_S176R_T178K)
- Kd [7]: 0.19 nM
- change in median KD of H1L1 Fab heterodimer compared to wild type (-(log(KD design)-log(KD wt))) [8]: -0.08

Substance: D3H44 Fab heterodimer, H1 P175C_C233S / L1 S162C_C214S (H1L1 Fab of LCCA Set # 9044)
- Kd [11]: 0.18 nM

Continued, values first:

- Kd [1]: 0.27 nM
- Change in median values of KD of h1l1 Fab heterodimer compared to wild type (-(log(KD design)-log(KD wt))) [2]: -0.23
Substance: D3H44 H1L1 Fab heterodimer of LCCA Set # 9344 (H1 L124R_A125R; L1 V133G_S176D_T178D)

- Kd [1]: 0.15 nM
- Change in median values of KD of h1l1 Fab heterodimer compared to wild type (-(log(KD design)-log(KD wt))) [2]: 0.03
Substance: D3H44 H1L1 Fab heterodimer of LCCA Sets # 9349 and 9348 (H1 L124R_A139G_V190A; L1 V133G_L135W_S176D)

- change in median KD compared to wild type, -(log(KD design)-log(KD wt)) [3]: -0.35
- Kd [4]: 0.35 nM
Substance: H1L1 Fab heterodimer of LCCA set 9746 (D3H44 Fab, H1 L45P_K145T_Q179E, L1 P44F_S131K)

- Kd [5]: 0.11 nM
- Change in median values of KD of h1l1 Fab heterodimer compared to wild type (-(log(KD design)-log(KD wt))) [6]: 0.14
Substance: H1L1 Fab heterodimer of LCCA Set # 9906 (D3H44 Fab; H1 S188G, L1 S176L)

- Kd [1]: 0.13 nM
- Change in median values of KD of h1l1 Fab heterodimer compared to wild type (-(log(KD design)-log(KD wt))) [2]: 0.09
Substance: D3H44 H1L1 Fab heterodimer of LCCA Set # 9185 (H1 L124E_L143D_K145M; L1 Q124K_V133G_S176R_T178R)

- Kd [11]: 0.14 nM
Substance: D3H44 Fab heterodimer, H1 A139C_C233S / L1 F116C_C214S (H1L1 Fab of LCCA Set # 9041)

- Kd [1]: 0.2 nM
- Change in median values of KD of h1l1 Fab heterodimer compared to wild type (-(log(KD design)-log(KD wt))) [2]: -0.1
Substance: D3H44 H1L1 Fab heterodimer of LCCA Sets # 9521 and 9520 (H1 L124R_S186R; L1 V133G_S176D_T178D)
